Assay results as given in paper PMC7939394, “A highly potent CD73 biparatopic antibody blocks organization of the enzyme active site through dual mechanisms” (The Journal of Biological Chemistry, 2020).

Experiments:
[1] = biological target: T1, extracellular domain of human CD73 (residues 27-549) deglycosylated with PNGase F (human, UniProt P21589, deglycosylated with PNGase F; a glycan left at Asn-311); assay: crystal structure; TB38 Fab::CD73 complex; crystals in 1.6 M sodium phosphate monobasic, 0.4 M potassium phosphate dibasic, 0.1 M sodium phosphate citrate pH 5.3, 4°C; settings: both partners purified
T1 construct: CD73 (ecto-5'-nucleotidase, NT5E), human, extracellular domain, residues 27-549; Construct used for SEC-MALS and for the two crystal structures; also called ecto-5'-nucleotidase; NT5E; source: ExpiHEK293, purified (nickel column, PNGase F, size-exclusion chromatography)

[2] = biological target: T2, soluble CD73 dimer (human, UniProt P21589); assay: BLI; pre-mix epitope binning: monovalent antibodies on protein A biosensors, 100 nM CD73 alone or with a 4-fold molar excess of Fab; PBS pH 7.4, 0.1% BSA, 0.01% Tween 20, 30°C; settings: both partners purified
T2 construct: CD73 (ecto-5'-nucleotidase, NT5E), human, soluble form; Also used here as the target of the functional rows, where CD73 stood whole on COR-L23 cells; also called soluble human CD73

[3] = biological target: T1, extracellular domain of human CD73 …; assay: crystal structure; TB19 Fab::CD73 complex; crystals in 0.1 M sodium potassium phosphate pH 6.2, 35% 5-methyl-2,4-pentanediol, 2.5% pentaerythritol ethoxylate, 4°C; settings: both partners purified
[4] = biological target: TB38/AS30; assay: SPR; Biacore T200, 25°C, HBS-EP+ pH 7.4; antibody captured at low density (5-30 RU) on Protein A chips, CD73 at 3, 12 or 32 nM in the flow (5 min association, 30 min dissociation); 1:1 Langmuir binding model
[5] = biological target: TB19/TB38; assay: as above
[6] = biological target: TB19/AS30; assay: as above
[7] = biological target: the molecule itself; assay: crystal structure; TB19 Fab::CD73 complex; crystals in 0.1 M sodium potassium phosphate pH 6.2, 35% 5-methyl-2,4-pentanediol, 2.5% pentaerythritol ethoxylate, 4°C

B1: TB38 Fab (Fab, V domains shown)
VH: QVQLVESGGGVVQPGRSLRLSCAASGFTFSSYGMHWVRQAPGKGLEWVAVFWYDGSNKYYADSVKGRFTISRDNSKNTLYLQMNSLSAEDTAVYYCARAPNWDDAFDIWGQGTMVTVSS
VL: QTVVTQEPSFSVSPGGTVTLTCGLSSGSVSTSYYPNWYQQTPGQAPRTLIYSTNTRSSGVPDRFSGSILGNKAALTITGAQADDESDYYCVLFMGSGIWVFGGGTKLTVL
notes: deposited with the structure TB38::CD73, PDB 6VCA (full Fab built on the open CD73 dimer); also called TB38 Fv
[1]
  binding result: binds

B2: TB19 Fab (Fab, V domains shown)
VH: QEQLQESGPGLVKPSETLSLTCTVSGGSIRNNYYNWIRQPAGKGLEWIGRIYISGTTNSNPSLKSRVTMSIDTSKNQFSLKLSSVTAADTAIYYCAREHYVSGTSLDNWGQGTLVTVSS
VL: EIVMTQSPTTLSLSPGERATLSCRASQSVNTNYFSWYQQKPGLTPRLLIYGTSTRATGIPARFSGSGSGTDFTLTISSLQPEDFGIYYCQQDYNLPYTFGQGTYLEIK
notes: deposited with the structure TB19::CD73, PDB 6VC9 (only the Fv could be built); The methods speak of a 'TB19.3 Fv model' as search model; also called TB19 Fv
[2]
  binding result: binds
[3]
  binding result: binds

B3: soluble CD73 dimer (enzyme)
chain: WELTILHTNDVHSRLEQTSEDSSKCVNASRCMGGVARLFTKVQQIRRAEPNVLLLDAGDQYQGTIWFTVYKGAEVAHFMNALRYDAMALGNHEFDNGVEGLIEPLLKEAKFPILSANIKAKGPLASQISGLYLPYKVLPVGDEVVGIVGYTSKETPFLSNPGTNLVFEDEITALQPEVDKLKTLNVNKIIALGHSGFEMDKLIAQKVRGVDVVVGGHSNTFLYTGNPPSKEVPAGKYPFIVTSDDGRKVPVVQAYAFGKYLGYLKIEFDERGNVISSHGNPILLNSSIPEDPSIKADINKWRIKLDNYSTQELGKTIVYLDGSSQSCRFRECNMGNLICDAMINNNLRHTDEMFWNHVSMCILNGGGIRSPIDERNNGTITWENLAAVLPFGGTFDLVQLKGSTLKKAFEHSVHRYGQSTGEFLQVGGIHVVYDLSRKPGDRVVKLDVLCTKCRVPSYDPLKMDEVYKVILPNFLANGGDGFQMIKDELLRHDSGDQDINVVSTYISKMKVIYPAVEGRIKFS
[4]
  Kd: 0.814 nM
  koff: 0.000187 s⁻¹
  kon: 237000 M⁻¹ s⁻¹
[5]
  Kd: 0.555 nM
  koff: 0.000102 s⁻¹
  kon: 184000 M⁻¹ s⁻¹
[6]
  Kd: 4.18 nM
  koff: 0.00069 s⁻¹
  kon: 165000 M⁻¹ s⁻¹

B4: extracellular domain of human CD73 (residues 27-549) deglycosylated with PNGase F (enzyme, UniProt P21589 27-549, looked up)
chain: B3 chain
modifications: deglycosylated with PNGase F; a glycan left at Asn-311
notes: CD73 (ecto-5'-nucleotidase, NT5E), human, extracellular domain, residues 27-549; Construct used for SEC-MALS and for the two crystal structures; also called ecto-5'-nucleotidase; NT5E; source: ExpiHEK293, purified (nickel column, PNGase F, size-exclusion chromatography)
[7]
  stoichiometry N: 2
